Laboratory results published in the Human Domainome abundance scans (Beltran et al. 2025).

B1: Double-stranded RNA-binding protein Staufen homolog 1, residues 183 to 249; numbered along this chain, O95793 (parent)
chain: KSEISQVFEIALKRNLPVNFEVARESGPPHMKNFVTKVSVGEFVGEGEGKSKKISKKNAAIAVLEEL

Variants of: B1
Assay: abundance fitness (aPCA) (normalised: wild type 0, dead -1); higher = more abundant; growth selection in yeast, the domain comes from the species named
Details: Homo sapiens

Abundance fitness, by site and new letter:
V38: E -0.554 | P -0.67 | S -0.46 | G -0.557 | D -0.57 | F -0.352 | K -0.511 | N -0.445 | L -0.081
E46: K -0.04 | Q 0.051 | P -0.939 | G -0.449 | N 0.01 | S -0.051 | M 0.028 | F 0.076 | I 0.052 | H 0.011 | A -0.151 | Y -0.013 | T 0.071 | W 0.039 | C -0.034 | V 0.036
K37: T -0.364 | F -0.58 | G -0.758 | R 0.034 | P -0.756 | V -0.345 | A -0.293 | I -0.529 | S -0.364 | E -0.553 | C -0.251 | Q -0.25 | Y -0.681 | W -0.442 | N -0.328 | L -0.311 | H -0.292
G45: E -0.484 | P -0.975 | H -0.619 | A 0.069 | M -0.585 | W -0.582 | R -0.265 | N -0.594 | K -0.108 | F -0.373 | C -0.038 | Q -0.395 | V -0.345 | L -0.591 | T -0.246 | S -0.146 | I -0.487 | D -0.645 | Y -0.422
S39: M -0.056 | F -0.099 | K -0.05 | A -0.067 | V -0.038 | Q -0.034 | Y -0.051 | R 0.029 | L -0.267 | N -0.138 | D -0.542 | E -0.146 | I -0.12 | H -0.081 | P -0.703 | G -0.55 | W -0.119 | C -0.064
G49: Q -0.741 | S -0.483 | M -0.729 | F -1.14 | L -0.802 | V -0.694 | Y -1 | W -1.14 | C -0.911 | I -0.791 | E -0.74 | D -0.519 | T -0.8 | N -0.748 | H -0.53 | A -0.485 | P -0.854
V44: F -0.195 | I -0.04 | R -0.051 | G -0.414 | M -0.045 | Q -0.074 | C 0.033 | H -0.102 | W -0.112 | D -0.238 | Y -0.099 | S -0.086 | T -0.015 | A -0.18 | L -0.14 | E -0.132 | K -0.016 | P -0.789
V35: H 0.029 | E -0.393 | K 0.048 | T -0.02 | D -0.511 | Q -0.093 | W -0.186 | I 0.046 | F 0.033 | L -0.021 | G -0.497 | A -0.256 | R 0.04 | N -0.35 | M -0.083 | Y -0.174 | P -0.502 | S -0.111
F34: E -0.56 | V -0.541 | Y 0.038 | K -0.725 | R -0.74 | Q -0.447 | T -0.428 | S -0.54 | N -0.468 | G -0.554 | I -0.372 | H -0.544 | D -0.578 | P -0.458 | W 0.089 | L -0.698 | M -0.56
E48: F -0.01 | I 0.128 | V 0.048 | D -0.427 | H -0.061 | N -0.045 | W -0.011 | M -0.013 | Y 0.002 | S 0.007 | P -0.808 | L -0.044 | C 0.064 | Q 0.054 | K 0.089 | A 0.001 | T 0.037 | R 0.104
